One block for each binder: values may come before it.
B9: BTN2A1 ectodomain homodimer (disulfide-linked, with C-terminal Cys247 and leucine zippers) (ligand, human, UniProt Q7KYR7 29-248, looked up)
chain: QFIVVGPTDPILATVGENTTLRCHLSPEKNAEDMEVRWFRSQFSPAVFVYKGGRERTEEQMEEYRGRTTFVSKDISRGSVALVIHNITAQENGTYRCYFQEGRSYDEAILHLVVAGLGSKPLISMRGHEDGGIRLECISRGWYPKPLTVWRDPYGGVAPALKEVSMPDADGLFMVTTAVIIRDKSVRNMSCSINNTLLGQKKESVIFIPESFMPSVSPCA
notes: extracellular domain; One copy carries the acidic, the other the basic zipper; also called immobilised BTN2A1 ectodomain homodimer; BTN2A1 homodimer; not shown: acidic or basic leucine zipper and C-terminal AviTag/His tags
B11: soluble BTN3A1 ectodomain (IgV-IgC), homodimer (ligand)
chain: not shown
notes: extracellular domain; Soluble analyte or immobilised ligand in SPR; streptavidin-PE tetramer in staining; also called BTN3A1 ectodomain homodimer; BTN3A1 tetramer; not shown: C-terminal biotin ligase (AviTag) and His tags

What was measured:
[1] = molecular target: B9; assay: SPR, soluble BTN2A1 ectodomain over immobilised BTN2A1 ectodomain homodimer
[2] = molecular target: B11; assay: SPR, soluble BTN2A1 ectodomain over immobilised BTN3A1 homodimer, equilibrium analysis
[3] = molecular target: B11; assay: SPR, soluble BTN2A1 ectodomain over immobilised BTN3A1 homodimer, equilibrium analysis, ± SEM
[4] = molecular target: T1, BTN2A1 on transfected cells (human, UniProt Q7KYR7 29-527); assay: FRET between anti-BTN2A1 (259) and anti-BTN3A (103.2) mAbs on NIH-3T3 cells co-expressing BTN2A1 WT and the BTN3A1 mutant (association in cis)
T1 construct: Expressed from pMIG in NIH-3T3 or HEK293T cells; also called BTN2A1+ cells; BTN2A1 WT
T1 sequence: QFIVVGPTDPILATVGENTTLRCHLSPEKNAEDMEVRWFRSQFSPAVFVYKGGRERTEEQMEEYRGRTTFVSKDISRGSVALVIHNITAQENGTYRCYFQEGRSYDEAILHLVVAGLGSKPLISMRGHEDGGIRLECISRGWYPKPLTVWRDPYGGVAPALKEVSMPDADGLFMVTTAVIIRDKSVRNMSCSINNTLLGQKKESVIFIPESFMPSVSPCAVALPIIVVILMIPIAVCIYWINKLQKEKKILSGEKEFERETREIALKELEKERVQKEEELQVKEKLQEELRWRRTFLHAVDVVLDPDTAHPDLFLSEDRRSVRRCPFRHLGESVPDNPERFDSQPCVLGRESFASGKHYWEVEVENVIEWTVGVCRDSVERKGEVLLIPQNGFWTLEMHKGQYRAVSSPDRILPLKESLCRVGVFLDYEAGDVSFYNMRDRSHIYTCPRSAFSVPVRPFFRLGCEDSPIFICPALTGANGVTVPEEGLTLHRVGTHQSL

[5] = molecular target: T2, 9C2 Vγ5Vδ1+ γδTCR on transfected HEK293T cells; assay: flow cytometry, tetramer-PE versus CD3-APC on HEK293T cells co-transfected with CD3 and 9C2 TCR; SAv ctl 26
T2 construct: Control TCR, co-transfected with CD3; also called 9C2 TCR (Control)

[6] = molecular target: B11; assay: SPR, soluble BTN3A1 ectodomain over immobilised BTN2A1 homodimer, equilibrium analysis, ± SEM
[7] = molecular target: B11; assay: SPR, soluble BTN3A1 IgV domain over immobilised BTN3A1 homodimer
[8] = molecular target: B9; assay: SPR, soluble BTN3A1 IgV domain over immobilised BTN2A1 homodimer, equilibrium analysis, ± SEM

- binding result [1]: no binding
- Kd [2]: ~1800 µM
- Kd [3]: 1800 µM
B1: soluble BTN2A1 ectodomain lacking Cys247 (monomeric) (ligand, human, UniProt Q7KYR7 29-246, looked up)
chain: QFIVVGPTDPILATVGENTTLRCHLSPEKNAEDMEVRWFRSQFSPAVFVYKGGRERTEEQMEEYRGRTTFVSKDISRGSVALVIHNITAQENGTYRCYFQEGRSYDEAILHLVVAGLGSKPLISMRGHEDGGIRLECISRGWYPKPLTVWRDPYGGVAPALKEVSMPDADGLFMVTTAVIIRDKSVRNMSCSINNTLLGQKKESVIFIPESFMPSVSP
notes: extracellular domain; also called soluble monomeric BTN2A1 ectodomain; full-length BTN2A1 ectodomain; not shown: C-terminal biotin ligase (AviTag) and His tags

- binding result [4]: no binding
B2: BTN3A1 Arg44-Ala on transfected NIH-3T3 cells (ligand)
chain: not shown
notes: whole, on cells; Position counts the mature protein

- binding result [4]: no binding
B3: BTN3A1 Glu106-Ala on transfected NIH-3T3 cells (ligand)
chain: not shown
notes: as for B2

- binding result [4]: no binding
B4: BTN3A1 Leu96-Ala on transfected NIH-3T3 cells (ligand)
chain: not shown
notes: as for B2

- binding result [4]: no binding
B5: BTN3A1 Tyr98-Ala on transfected NIH-3T3 cells (ligand)
chain: not shown
notes: as for B2

- binding result [4]: no binding
B6: BTN3A1 Tyr98-Phe on transfected NIH-3T3 cells (ligand)
chain: not shown
notes: as for B2

- binding result [4]: no binding
B7: BTN3A1 Tyr105-Ala on transfected NIH-3T3 cells (ligand)
chain: not shown
notes: as for B2

- median fluorescence of PE [5]: 25
B8: BTN2A1 ectodomain tetramer (streptavidin-PE) (ligand, human, UniProt Q7KYR7 29-248, looked up)
chain: QFIVVGPTDPILATVGENTTLRCHLSPEKNAEDMEVRWFRSQFSPAVFVYKGGRERTEEQMEEYRGRTTFVSKDISRGSVALVIHNITAQENGTYRCYFQEGRSYDEAILHLVVAGLGSKPLISMRGHEDGGIRLECISRGWYPKPLTVWRDPYGGVAPALKEVSMPDADGLFMVTTAVIIRDKSVRNMSCSINNTLLGQKKESVIFIPESFMPSVSPCA
notes: extracellular domain; biotinylated at a C-terminal AviTag; also called BTN2A1 tetramer

Binder: B9
- Kd [6]: 500 µM

- median fluorescence of PE [5]: 52
B10: BTN2A1-BTN3A1-zipper ectodomain complex (wild type) (other)
chain 1: QFIVVGPTDPILATVGENTTLRCHLSPEKNAEDMEVRWFRSQFSPAVFVYKGGRERTEEQMEEYRGRTTFVSKDISRGSVALVIHNITAQENGTYRCYFQEGRSYDEAILHLVVAGLGSKPLISMRGHEDGGIRLECISRGWYPKPLTVWRDPYGGVAPALKEVSMPDADGLFMVTTAVIIRDKSVRNMSCSINNTLLGQKKESVIFIPESFMPSVSPCA
chain 2: not shown
notes: extracellular domain; Immobilised in SPR; streptavidin-PE tetramer in staining; also called BTN2A1-BTN3A1 complex; BTN2A1-BTN3A1 heteromer; not shown: acid zipper (AZ)-His6; basic zipper (BZ)-biotin ligase tag

Binder: B11
- median fluorescence of PE [5]: 28

- binding result [7]: no binding (tested: 1,590 µM)
- Kd [8]: 1100 µM
B12: monomeric BTN3A1 IgV domain (ligand)
chain: not shown
notes: domain: IgV; not shown: C-terminal biotin ligase (AviTag) and His tags

Source: patent publication US20250161356A1 (UNIVERSITY OF MELBOURNE, published 2025)
